Test results reported in patent publication US20020147999A1 (J DAVID GLADSTONE INSTITUTES, published 2002).

Molecular target: apoE cleavage enzyme (chymotrypsin-like serine protease; in mouse brain lysate or roughly/partially purified)
Assay: cell-based or functional assay

Binder | inhibition of apoE cleavage enzyme activity (chromogenic assay, 1 mM Ala-Ala-Pro-Phe-p-nitroanilide; 6 mM peptide; 20 hour incubation) [%]
AAPL [Ala-Ala-Pro-Leu (SEQ ID NO:3)] | 56
AAPF [Ala-Ala-Pro-Phe (SEQ ID NO:1)] | 67
AAAAPF [Ala-Ala-Ala-Ala-Pro-Phe (SEQ ID NO:4)] | 58
